Earlier results as cited in PMC8006918.
Like-named read-outs stand apart in the source and are kept apart here. Blank lines part the entries; values can stand above or below the substance they belong to.

How the values were obtained:
[1] = target: Tenascin-C (Homo sapiens) (UniProt P24821)
[2] = target: Tenascin-C (Homo sapiens) (UniProt P24821); remark: listed apart in the source
[3] = target: Tenascin-C (Homo sapiens) (UniProt P24821); remark: listed apart in the source

Sequence of Tenascin-C (Homo sapiens) (P24821 23-2201): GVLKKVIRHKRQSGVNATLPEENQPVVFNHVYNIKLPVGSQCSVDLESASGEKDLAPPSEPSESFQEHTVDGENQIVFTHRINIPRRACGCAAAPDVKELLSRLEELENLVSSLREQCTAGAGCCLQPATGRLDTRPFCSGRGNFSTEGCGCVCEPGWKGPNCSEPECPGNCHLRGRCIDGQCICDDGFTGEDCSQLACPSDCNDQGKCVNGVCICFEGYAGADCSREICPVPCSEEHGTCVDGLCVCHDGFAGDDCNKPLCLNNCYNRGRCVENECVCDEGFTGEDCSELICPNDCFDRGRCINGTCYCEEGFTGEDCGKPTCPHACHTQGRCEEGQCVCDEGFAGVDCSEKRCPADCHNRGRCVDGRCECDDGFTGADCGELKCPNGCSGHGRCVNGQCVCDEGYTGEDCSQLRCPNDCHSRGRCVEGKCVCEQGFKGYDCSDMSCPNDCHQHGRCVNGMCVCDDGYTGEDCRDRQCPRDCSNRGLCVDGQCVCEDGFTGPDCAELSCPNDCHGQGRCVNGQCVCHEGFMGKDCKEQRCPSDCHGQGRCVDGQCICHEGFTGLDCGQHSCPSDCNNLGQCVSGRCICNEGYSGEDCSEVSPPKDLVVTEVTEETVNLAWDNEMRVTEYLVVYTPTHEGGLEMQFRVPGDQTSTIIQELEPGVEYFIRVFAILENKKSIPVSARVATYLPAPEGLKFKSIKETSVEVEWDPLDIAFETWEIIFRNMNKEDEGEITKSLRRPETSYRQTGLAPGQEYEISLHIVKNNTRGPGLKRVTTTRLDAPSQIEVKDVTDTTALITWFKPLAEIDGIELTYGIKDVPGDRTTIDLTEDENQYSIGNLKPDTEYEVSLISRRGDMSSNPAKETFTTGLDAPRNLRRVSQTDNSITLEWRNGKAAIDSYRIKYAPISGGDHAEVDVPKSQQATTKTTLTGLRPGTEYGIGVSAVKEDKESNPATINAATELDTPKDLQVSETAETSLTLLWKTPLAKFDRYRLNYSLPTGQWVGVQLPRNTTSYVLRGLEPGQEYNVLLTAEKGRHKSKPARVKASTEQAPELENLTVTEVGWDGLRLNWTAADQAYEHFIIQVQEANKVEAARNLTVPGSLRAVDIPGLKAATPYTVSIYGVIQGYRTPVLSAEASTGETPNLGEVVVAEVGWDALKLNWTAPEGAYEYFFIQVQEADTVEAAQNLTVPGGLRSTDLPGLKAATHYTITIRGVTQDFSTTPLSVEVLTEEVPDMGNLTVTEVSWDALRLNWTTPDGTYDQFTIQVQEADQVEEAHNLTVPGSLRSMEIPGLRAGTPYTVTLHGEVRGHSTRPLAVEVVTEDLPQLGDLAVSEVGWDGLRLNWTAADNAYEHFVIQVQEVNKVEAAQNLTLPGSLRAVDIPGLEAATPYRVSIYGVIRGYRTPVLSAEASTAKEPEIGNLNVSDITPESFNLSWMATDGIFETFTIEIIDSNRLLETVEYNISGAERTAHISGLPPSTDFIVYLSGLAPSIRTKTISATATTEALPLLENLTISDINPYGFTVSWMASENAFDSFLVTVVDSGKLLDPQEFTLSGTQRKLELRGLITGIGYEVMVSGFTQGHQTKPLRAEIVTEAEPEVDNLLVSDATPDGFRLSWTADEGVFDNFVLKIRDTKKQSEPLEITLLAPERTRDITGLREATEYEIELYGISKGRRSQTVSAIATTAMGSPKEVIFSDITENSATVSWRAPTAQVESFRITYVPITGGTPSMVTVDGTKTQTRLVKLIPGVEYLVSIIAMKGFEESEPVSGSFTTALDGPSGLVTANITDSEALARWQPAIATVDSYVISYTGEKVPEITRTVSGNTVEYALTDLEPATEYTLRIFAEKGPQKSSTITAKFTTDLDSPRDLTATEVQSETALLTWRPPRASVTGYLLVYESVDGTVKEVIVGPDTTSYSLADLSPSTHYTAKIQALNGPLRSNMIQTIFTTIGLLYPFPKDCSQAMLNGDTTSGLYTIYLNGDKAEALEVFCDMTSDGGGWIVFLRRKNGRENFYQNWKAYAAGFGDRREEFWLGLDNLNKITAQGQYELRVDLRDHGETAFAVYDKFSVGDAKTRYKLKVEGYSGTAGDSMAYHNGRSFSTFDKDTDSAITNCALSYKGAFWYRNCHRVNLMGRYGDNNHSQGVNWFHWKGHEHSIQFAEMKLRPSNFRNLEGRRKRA
Sequence of Fibronectin FN III13 (P02751 1904-1992): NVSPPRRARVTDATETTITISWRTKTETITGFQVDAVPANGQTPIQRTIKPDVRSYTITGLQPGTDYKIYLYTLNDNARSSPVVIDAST
Sequence of TGF-β1 (P01137 279-390): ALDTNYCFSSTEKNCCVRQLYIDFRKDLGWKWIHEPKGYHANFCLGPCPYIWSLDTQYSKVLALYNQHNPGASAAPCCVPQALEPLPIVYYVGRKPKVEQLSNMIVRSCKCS
Sequence of CCL21 (O00585 24-134): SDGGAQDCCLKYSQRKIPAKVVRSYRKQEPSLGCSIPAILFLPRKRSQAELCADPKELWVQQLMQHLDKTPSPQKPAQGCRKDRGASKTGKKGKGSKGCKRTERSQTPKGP

- Kd [1]: 58 nM
Substance: CCL21 (from UniProt O00585)

- Kd [2]: 128 nM
Substance: Fibronectin FN III13 (from UniProt P02751)

- Kd [3]: 20.3 nM
Substance: TGF-β1 (from UniProt P01137)
